Experimental data taken from publication PMC4879557, “HPTLC-aptastaining – Innovative protein detection system for high-performance thin-layer chromatography”.

T1: beta-lactoglobulin (UniProt P02754 17-178)
T1 sequence: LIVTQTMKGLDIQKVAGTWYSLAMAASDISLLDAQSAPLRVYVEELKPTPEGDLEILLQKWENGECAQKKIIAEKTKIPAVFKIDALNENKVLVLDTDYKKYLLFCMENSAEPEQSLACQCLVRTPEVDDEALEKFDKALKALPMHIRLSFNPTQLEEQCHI


Experiments:
[1] = biological target: T1, beta-lactoglobulin; assay: HPTLC-aptastaining; RP-18W and silica gel plates; White wine mimicking buffer: 1.5 mM KCl, 14.5 mM K acetate, 3.5 mM Mg acetate, 1.5 mM Ca acetate, 1 mM NaH2PO4, 4 mM KH2PO4, 11.5% (v/v) ethanol, pH 3.1; room temperature; plates blocked with 0.6% Tween 20; aptamer 5 nM (silica gel, cellulose) or 0.5 nM (RP); details: protein: native; chain copies: 2; label: 5' ATTO 550
[2] = biological target: T2, lysozyme (hen (egg white), UniProt P00698 19-147); assay: as above; details: protein: native; label: 5' ATTO 550
T2 sequence (P00698 19-147): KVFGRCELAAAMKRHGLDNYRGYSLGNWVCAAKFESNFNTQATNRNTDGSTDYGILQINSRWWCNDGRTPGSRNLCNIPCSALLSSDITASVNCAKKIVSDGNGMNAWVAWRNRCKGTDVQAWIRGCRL

[3] = biological target: T2, lysozyme; assay: HPTLC-aptastaining; no obvious differences to LysApt5; White wine mimicking buffer: 1.5 mM KCl, 14.5 mM K acetate, 3.5 mM Mg acetate, 1.5 mM Ca acetate, 1 mM NaH2PO4, 4 mM KH2PO4, 11.5% (v/v) ethanol, pH 3.1; room temperature; plates blocked with 0.6% Tween 20; aptamer 5 nM (silica gel, cellulose) or 0.5 nM (RP); details: protein: native; label: 5' ATTO 550

Binder	binding result [1]	binding result [2]	binding result [3]
5'-ATTO 550-LysApt5 (ssDNA) DNA: CATCCGTCACACCTGCTCCCTGCTAGAATTTTTCATGATCTTGCTGTATTTCTATTATGGTGTTCGGTCCCGTATC	no binding	binds	
5'-ATTO 550-LysApt4 (ssDNA) DNA: CATCCGTCACACCTGCTCTTGTTATTTTTTGTTGATGTAGGTTTGATGATGTATTTCCGGTGTTCGGTCCCGTATC			binds
